# Measured values taken from paper PMC3164876.
# Columns and labels:
# [1] = biological target: SC1918/H1 (A/South Carolina/1/1918 (H1N1)) HA ectodomain (influenza A virus A/South Carolina/1/1918 (H1N1)) (UniProt Q9WFX3); assay: SPR
# [2] = biological target: HB36 Asp47Ser, displayed on yeast; assay: flow cytometry on cells
# [3] = biological target: HB36.3 (HB36 Asp47Ser, Ala60Val), displayed on yeast; assay: flow cytometry on cells
# [4] = biological target: HB36.4 (HB36 Asp47Ser, Ala60Val, Asn64Lys), displayed on yeast; assay: flow cytometry on cells
# [5] = biological target: HB80 Asn36Lys, displayed on yeast; assay: flow cytometry on cells
# [6] = biological target: HB80 Met26Thr Asn36Lys, displayed on yeast; assay: flow cytometry on cells
# [7] = biological target: HB80 Met26Thr, displayed on yeast; assay: flow cytometry on cells
# [8] = biological target: HB80 Δ54–95, Met26Thr, Asn36Lys, displayed on yeast; assay: flow cytometry on cells
# [9] = biological target: HB80.3 (HB80 Δ54–95, Asp12Gly, Ala24Ser, Met26Thr, Asn36Lys), displayed on yeast; assay: flow cytometry on cells
substance,measurement,setting,value
"HB36.3 (HB36 Asp47Ser, Ala60Val), purified from E. coli (designed binder)",Kd,[1],29 nM
"HB36.4 (HB36 Asp47Ser, Ala60Val, Asn64Lys), purified from E. coli (designed binder)",Kd,[1],22 nM
"HB80.3 (HB80 Δ54–95, Asp12Gly, Ala24Ser, Met26Thr, Asn36Lys), purified from E. coli (designed binder)",Kd,[1],38 nM
SC1918/H1 (A/South Carolina/1/1918 (H1N1)) HA ectodomain (from UniProt Q9WFX3 18-529) (domain or fragment),Kd,[2],5 nM
same,Kd,[3],4 nM
same,Kd,[4],4 nM
same,Kd,[5],300 nM
same,Kd,[6],7.5 nM
same,Kd,[7],100 nM
same,Kd,[8],5 nM
same,Kd,[9],3 nM
